Results: the supplement of paper PMC12042874
± gives the uncertainty stated by the source.

Experiment: amyloid nucleation score (Sup35N fusion, yeast selection) (log enrichment); library NNK3; higher = more nucleation; inactive = no reads after selection
Summary of the method: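 Nucleation score: DiMSum log enrichment of output over input reads, centred on the mode score of non-aggregating sequences. Only sequences with at least 100 input reads were kept. Reads came from Illumina sequencing of plasmid inserts before and after 7 days of growth at 30°C without adenine and uracil, in psi-negative yeast expressing Sup35N fused to peptides of 20 random codons after 24 hours of induction with 100 μM copper sulfate.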

Substance | amyloid nucleation score
LKSMLLFSMRSRSVKCCGGE | inactive
FSAIWMSRQSYLRINGSPAF | 0.088 ± 0.29
QVSLLYSVECMTFSFGNGDA | 1.6 ± 0.11
NSLWSYMGTVLFNPFWLVWR | inactive
ECGWNMFCDRAHMSLGFYSM | inactive
TNKLIKFLDFHVRRVAVVGE | inactive
WVFISKQLVNDVAWPVLCAL | -0.17 ± 0.85
SICTLFACHAFAGRYTTQGG | 1.04 ± 0.2
MRSRGTLHYATDSLWSLGEP | inactive
MMLFNSMWDIFCLMDGLH | inactive
QFITLCLSSRSEVSVPFSLW | 0.997 ± 0.12
YKYGFAFCIIASAVSR | inactive
QVDFQLCH | inactive
CSAYNLSYHGGRDVRCRNTF | inactive
SIVSRLF | inactive
GSGLLE | inactive
FIDMLSYIAYIVLFFGASFV | inactive
SLIITTLTHEYCMCHRIWST | 2.25 ± 0.071
GIVNYRPAYP | inactive
YRRSGTYMSDSGVLVVKVCV | inactive
FWLLIIVF | inactive
MIIPFLLLTMLITKSWLLIW | inactive
MRMHALAVNIGCCYTCVVVT | 0.866 ± 0.099
APRLFKQIIVTQTDGSLEGE | inactive

Substance | amyloid nucleation score
SCIYTMAIRNNKVRCYFRAG | inactive
KSWVRGH | inactive
AASPQARGCILSCNVSRNQT | inactive
YCQIK | inactive
CHASVW | inactive
ISDHTLAGIIFC | inactive
TYTYCTLNSLTDSRSETILV | inactive
SAREKIVLRVS | -0.684 ± 1.1
MVKLCALSCSIALDPIQTFK | 0.426 ± 0.19
QYVWCGPFERYLASSVYGFS | inactive
YEAFADRTPLVFAHSWSMLK | inactive
LSCVRRSSLDSC | inactive
RFIVHIYNMN | 2.59 ± 0.059
VLLLTMEFGASDVFCWVVKY | inactive
DIFGKRRLCI | inactive
RHISRRRLREVGVCRLKVML | inactive
GRDAVLI | -0.785 ± 1.1
FIVVPVGVKHDVS | inactive
VCKLVTYSYLLVREPRSADS | inactive
PAQLHNTVHL | inactive
LWKLSSNSYWFVSCNGLKYS | inactive
RQLSSQREWECATPMRHRLA | 0.145 ± 0.51
RCGHFLYEFL | inactive
LVIGVYWDRSPLVSSPFPLN | inactive

Substance | amyloid nucleation score
ELDAYIRRGLCSLKWCRKLN | inactive
YSHGTAKIPQAVVNDVIKSI | inactive
STLCSSCKGFDRMRYILVTR | 0.274 ± 0.38
MIACNSRRCI | inactive
FLMAINFKVQSVPQNHR | 0.211 ± 0.48
YDLCERLR | inactive
HPSSNLMHLM | inactive
PDYGMSLCHLPTWMW | inactive
AMKSAW | inactive
TGIMIVNYLVSELKPRTIST | 0.923 ± 0.11
GTASRG | inactive
NLRHYTVDMLCSNYEYVIVY | inactive
LLVTDYGFELTVQLWNKRSL | -0.155 ± 0.33
GTIHLFYVFLLS | 0.205 ± 0.38
KVCRAYWYYPNFTMSRT | inactive
LLLSTRID | inactive
KRSDVYVGKNCSEDMRFSNL | inactive
GLDLRTCGCYHSIP | inactive
EGSDIA | inactive
NIVERQDLLLGLANNWLHLT | inactive
LDVKQSSRSLREAVDVFNNH | inactive
YKSRGMVYDYFGKMIYHLSG | 0.63 ± 0.13
GPTNGFMSLNNWYQPLDQPV | inactive
RMFICSQYWFVWVKLPPCGL | inactive

Substance | amyloid nucleation score
PTYAC | inactive
SATFRSSVTLSRHPVNNLTP | 1.35 ± 0.082
MEGDLSVADSYGDQ | inactive
SIIRNKFVAMNMNSVNM | 0.831 ± 0.095
AKWMAFSSSSFRSCFFSFKQ | -0.804 ± 1.8
GFKVVSSLDFSCG | 0.55 ± 0.31
GFEVNKACQLIEYPLFFTRL | inactive
VVSTNVYGGLTMASYCGALP | 1.24 ± 0.16
VGRHDNGVSDFAMTSSWVFF | inactive
RTSVISISSLILALRGLYSR | inactive
LYRWHNLFGYTNVSSIQKYG | inactive
YIPIYRFVMIS | inactive
CVNTIFTRRFWNEGSIPAGL | inactive
SFFTYRPQMMRCLSAIYTRM | inactive
GCVCQLR | inactive
FSSMANNIL | inactive
GRCSQGSLGSAG | inactive
DEFEMLLEGWVSVVGMMTRE | inactive
NLTGCMDLC | 0.853 ± 0.19
YMFVLGYRMNCW | 1.01 ± 0.17
CLGPKCATKDIFL | inactive
VIKTLVSWTYISCRLN | inactive
FNPERPKAVDFPILNR | inactive
NLSVGRALTWHPSPWDQQIW | inactive

Substance | amyloid nucleation score
NACVNEWRPKCQVSWGGPSF | -0.385 ± 0.93
ENWDSILCKWRGAGMRGSAW | inactive
RSSWK | inactive
AEASNGACLRLCWLVLVWMD | -0.206 ± 1.5
LNMGVTRLDLISLGWGSVSL | -0.41 ± 0.75
FHILIFVKTP | inactive
IGRPGVRYNLKCRGRIRG | inactive
SISAKVGSSGRLGRSPYRVD | inactive
SWSFDWFQSIVVGYLTCALA | inactive
ITFVRGWVFDLQFNATE | 0.55 ± 0.37
NGTLSYCPDKELSTLVFLHY | inactive
DSTVTSE | inactive
SKFRFGRVNLNVT | inactive
EVYKYKSEERMVAST | inactive
RNYRGTSEIRCVPWLSSVSW | inactive
QRLRHFAVYTMMYEAWASRC | inactive
TSRHVLR | -0.187 ± 0.66
ANSTNKQC | inactive
KFTMTPWDPLCLCVRSDIDL | inactive
KKASVLSHVTYNRMITAWNI | inactive
FKIKKVN | inactive
GWHNGDKSYIFVYIRFGPMG | 0.955 ± 0.16
FFLSFRYLKKFSRIGLW | inactive
HSWWLWNGFVGLAPLVDNFF | inactive

Substance | amyloid nucleation score
TVFDWLMHQMNC | inactive
FMSYCMYSLEGNSWHCGP | 3.03 ± 0.061
RFFNFPGNLKLSHVDLIAIW | 0.214 ± 0.64
VYVHLRNLQSL | inactive
PFNLPMARNETWGTVQAKIR | inactive
YWRFAMYQCIQFSRR | inactive
LSSFLLFLAELCWVLKQRMC | inactive
SDWRRISVLIMFTEARSFLV | inactive
FECGRFMGLVVLAVRSGNVM | inactive
ESKMGCP | inactive
TCSVCMGQVTMVIRYVNSNC | inactive
QIFLVKPMSDFSCNSSRYTL | -0.423 ± 0.76
QLSFMEGANLRYCDFKPMIV | inactive
FSIVELTLSRLK | inactive
YTLAC | inactive
YAPSVLSCN | inactive
FGQGGALFLWKCMTYFILLG | inactive
EVSIKAVDWRVSDVTVARTC | -0.228 ± 0.93
VYRQVLRET | inactive
YYGRNEVLYQSDNVRYSSSG | inactive
ISSFCRGLVAFEPCWFGLEK | inactive
QDEPTMNVQ | inactive
ISMFCMIGFEVW | inactive
GRSMR | inactive

Substance | amyloid nucleation score
SGATLLC | inactive
LGVYYVNNRYFADFKGVEHG | 0.154 ± 0.67
CWVVHGNNRVHGHMLGLRAI | inactive
MNTSDSARKSRYRARG | inactive
SENMTGFLNRTSIISPWTYC | inactive
IWPVESWLWHVLWYLVFKI | 0.49 ± 0.17
CRCRFLAVWWNSVGYNDGVG | inactive
VIDEYQSVICGYLIRGWHAS | 1.79 ± 0.088
CCRLVRHFE | inactive
RSCVLMVASVSNRNRPGDVS | inactive
CLALYRGRMLSGKVRRCTTS | inactive
KDLDGVLFGNANWKIICEL | inactive
SKACAVLAYNLVGFEFHFEF | 1.69 ± 0.074
WECRDETSCARVVFTGLFR | inactive
VLMMPPAFRRQSFNFRCVSQ | inactive
SWDVGGLYCKINGPIMLSLD | inactive
RSWESV | inactive
RQADMYRYLFWGRWTVWCSW | inactive
